Laboratory results taken from the supplement of paper PMC9732359.
± gives the uncertainty stated by the source.

Assay: protein stability index of a GFP-peptide fusion (yeast GPS) (PSI 1-4); higher = more stable; sorted into four equal gates, so the index is relative within each strain
Summary of the method: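 Tiled 17-residue peptides from yeast proteins were fused downstream of GFP on a plasmid that also expresses Cherry, and the pooled library was carried in yeast. Mid-log cultures grown in leucine-free medium were sorted into four equal gates by GFP/Cherry fluorescence ratio. Plasmids from each gate were PCR-amplified and Illumina-sequenced, and reads were assigned to strains by barcodes. Each peptide's protein stability index is the sum, over gates, of the gate's read frequency multiplied by its gate number.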

Sequence | protein stability index (doa10∆) | protein stability index (pdr5∆) | protein stability index (san1∆) | protein stability index (ubr1∆)
RAASIRARVKAFPKDDR [RPL3] | 1.22 ± 0.035 | 1.46 ± 0.051 | 1.27 ± 0.078 | 1.5 ± 0.039
TAFATEFFVQVLTHESL [DLS1] | 2.47 ± 0.11 | 2.71 ± 0.11 | 2.73 ± 0.088 | 2.02 ± 0.046
MTIDDSNRLLMDVDQFD [YJR042W/NUP85] |  | 3.63 ± 0.21 | 3.25 ± 0.098 | 3.51 ± 0.2
NEPAARLGSEADAKAFL [FAS2] | 3.45 ± 0.065 | 3.42 ± 0.058 | 3.35 ± 0.042 | 3.31 ± 0.077
SIMAVTFKDGVILGADS [PRE3] | 1.66 ± 0.1 | 2.61 ± 0.094 | 2.94 ± 0.086 | 2.59 ± 0.14
LRDYTTVPRIVQLLSKS [RPN2] | 1.62 ± 0.046 | 1.98 ± 0.053 | 2.26 ± 0.1 | 1.73 ± 0.045
SNTDETKGENYQLVKTL [FAS2] | 2.94 ± 0.081 | 3.06 ± 0.081 | 2.81 ± 0.076 | 3.25 ± 0.084
LLDEEAEQSFDQQSPWL [RPO21] | 3.27 ± 0.073 | 3.25 ± 0.065 | 3.24 ± 0.045 | 3.08 ± 0.048
KIMQSISNKDVIFKIRD [SRB4] | 3.34 ± 0.1 | 2.91 ± 0.15 | 3.22 ± 0.11 | 2.72 ± 0.12
REMRRKVYAQLLESYKT [RPN7] | 2.36 ± 0.081 | 2.96 ± 0.14 | 2.32 ± 0.18 | 2.7 ± 0.09
GFINQKNLKPQEQLKNV [YIL149C/MLP2] | 3.09 ± 0.11 | 2.84 ± 0.081 | 2.77 ± 0.062 | 2.9 ± 0.068
PDGTLIASAGKDGEIML [ASC1] | 3.06 ± 0.073 | 3.26 ± 0.091 | 3.29 ± 0.045 | 2.8 ± 0.045
QALRVLRLKPGRKYTTL [RPL16B] | 2.34 ± 0.055 | 1.98 ± 0.051 | 2.37 ± 0.057 | 2.73 ± 0.048
LKTRYVGRQDPKKHLSE [RPN11] | 3.08 ± 0.087 | 3.11 ± 0.18 | 3.3 ± 0.078 | 3.26 ± 0.12
TLSYDDISAAIVHSSDG [DLS1] | 2.65 ± 0.046 | 2.82 ± 0.053 | 2.72 ± 0.04 | 2.66 ± 0.046
LIPDGRHLVNRGREEAA [PRE10] |  | 1.41 ± 0.28 |  | 
HLILDKLNQKYDIVKFL [GRR1] | 1.83 ± 0.041 | 1.66 ± 0.035 | 1.3 ± 0.1 | 1.81 ± 0.03
KIKQYERLRFYKDTFTL [RRI1] | 2.78 ± 0.056 | 2.54 ± 0.055 | 2.4 ± 0.049 | 2.81 ± 0.039
FAVALKNEPDYSKAKYP [CDC53] | 2.88 ± 0.078 | 2.46 ± 0.081 | 2.37 ± 0.098 | 2.34 ± 0.092
DTIATSATPNAAAFSQQ [GAL11] | 2.6 ± 0.056 | 2.92 ± 0.064 | 2.76 ± 0.055 | 2.82 ± 0.039
SMKYDNGVIIAADNLGS [PRE4] | 2.66 ± 0.15 | 3.35 ± 0.088 | 2.5 ± 0.13 | 3.06 ± 0.11
KQGRIKNATEELLRLAN [CSN12] | 3.15 ± 0.17 | 3 ± 0.13 | 2.6 ± 0.14 | 3.36 ± 0.22
AFKHKRALVEHIIQAKA [RPL19A] | 3.11 ± 0.13 | 3.37 ± 0.1 | 3.19 ± 0.12 | 3.19 ± 0.072
ITKDHKVLARQQLQVLA [FAS2] | 1.29 ± 0.044 | 1.45 ± 0.062 | 1.82 ± 0.099 | 1.3 ± 0.047
QNDELKFQGVLESEAQK [RPC34] | 3.41 ± 0.11 | 3.21 ± 0.11 | 3.23 ± 0.061 | 2.93 ± 0.075
TPKVVRSQDQENPAFLP [SEC65] | 2.66 ± 0.074 | 2.57 ± 0.067 | 2.16 ± 0.063 | 2.65 ± 0.055
KSNVIDSMLFVFGFRAN [SMC4] | 2.26 ± 0.049 | 2.39 ± 0.054 | 2.16 ± 0.078 | 2.68 ± 0.059
